Results reported in publication PMC4344939.

Molecular target: Recombinant human galectin-1 (human) (UniProt P09382)
Test: SPR

Chain of UniProt P09382 (P09382 whole entry): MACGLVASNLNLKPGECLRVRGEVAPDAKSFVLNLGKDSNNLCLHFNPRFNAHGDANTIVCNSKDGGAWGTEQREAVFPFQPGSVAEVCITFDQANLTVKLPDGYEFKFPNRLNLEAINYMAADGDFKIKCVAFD

## Recombinant hemagglutinin (HA) from influenza A H1N1 (A/Puerto Rico/8/1934) (from UniProt P03452) (natural protein)
  Kd: 425 nM
